In article PMC1964878:

Legend:
[1] = tested on: O=C(O)[C@@H]1C[C@@H](O)CN1; test: purified protein; settings: Tris 20 mM/EDTA 1 mM, pH 8-9 (optimum buffer), 37 C, 10-160 mM substrate
[2] = tested on: O=C(O)[C@H]1C[C@@H](O)CN1; test: purified protein; settings: Tris 20 mM/EDTA 1 mM, pH 8-9 (optimum buffer), 37 C, 10-160 mM substrate

Substance: PaHyPRE (Pseudomonas aeruginosa PAO1)
- Km [1]: 15.9 mM
- Km [2]: 18.5 mM
